# Source: patent US20210205286A1 (UNM RAINFOREST INNOVATIONS, published 2021)
# B1: GFP-Gal8 (other, UniProt O00214 1-317, looked up)
# chain: MMLSLNNLQNIIYNPVIPFVGTIPDQLDPGTLIVIRGHVPSDADRFQVDLQNGSSMKPRADVAFHFNPRFKRAGCIVCNTLINEKWGREEITYDTPFKREKSFEIVIMVLKDKFQVAVNGKHTLLYGHRIGPEKIDTLGIYGKVNIHSIGFSFSSDLQSTQASSLELTEISRENVPKSGTPQLRLPFAARLNTPMGPGRTVVVKGEVNANAKSFNVDLLAGKSKDIALHLNPRLNIKAFVRNSFLQESWGEEERNITSFPFSPGMYFEMIIYCDVREFKVAVNGVHSLEYKHRFKELSSIDTLEINGDIHLLEVRSW
# notes: also called Galectin 8; GFP-tagged galectin; not shown: GFP
# B2: FLAG-Gal9^R65A/R239A (other, UniProt O00182-2 1-323, looked up)
# chain: MAFSGSQAPYLSPAVPFSGTIQGGLQDGLQITVNGTVLSSSGTRFAVNFQTGFSGNDIAFHFNPAFEDGGYVVCNTRQNGSWGPEERKTHMPFQKGMPFDLCFLVQSSDFKVMVNGILFVQYFHRVPFHRVDTISVNGSVQLSYISFQPPGVWPANPAPITQTVIHTVQSAPGQMFSTPAIPPMMYPHPAYPMPFITTILGGLYPSKSILLSGTVLPSAQRFHINLCSGNHIAFHLNPAFDENAVVRNTQIDNSWGSEERSLPRKMPFVRGQSFSVWILCEAHCLKVAVDGQHLFEYYHRLRNLPTINRLEVGGDIQLTHVQT
# notes: also called double mutant; glycan recognition mutant; not shown: FLAG tag
# Key:
# LAMP2 (endogenous) [1] = biological target: T1, LAMP2 (endogenous) (UniProt P13473 29-410, limits assumed, glycosylated (binding told as glycan-dependent)); test: co-IP, anti-GFP IP of GFP-tagged galectins, blot for endogenous LAMP2 (FIG. S2B)
# T1 construct: Integral lysosomal membrane glycoprotein
# T1 sequence (P13473 29-410 limits assumed): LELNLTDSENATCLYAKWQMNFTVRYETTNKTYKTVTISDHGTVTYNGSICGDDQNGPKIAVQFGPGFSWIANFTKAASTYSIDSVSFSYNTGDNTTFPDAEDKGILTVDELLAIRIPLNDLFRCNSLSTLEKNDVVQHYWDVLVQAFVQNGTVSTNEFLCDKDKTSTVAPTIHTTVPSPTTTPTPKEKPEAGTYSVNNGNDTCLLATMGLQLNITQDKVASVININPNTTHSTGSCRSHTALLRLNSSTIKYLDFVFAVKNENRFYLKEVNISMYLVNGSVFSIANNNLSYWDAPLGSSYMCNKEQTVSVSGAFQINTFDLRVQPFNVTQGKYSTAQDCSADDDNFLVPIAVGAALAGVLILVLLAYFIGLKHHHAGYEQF
# Description: (B) Co-IP analysis of galectins and LAMP2. Cells expressing GFP-tagged galectins were subjected to anti-GFP immunoprecipitation followed by immunoblotting for endogenous LAMP2. (C) Schematic, strategy for stable HeLa Flp-In Gal9^Tet-ON which stably express mCherry-Gal9 induced by tetracycline. HeLa Flp-In Gal9^Tet-ON cells treated with LLOMe in a time dependent manner quantified by HCM. (D) HCM visualization of mCherry-Gal9 localization relative to LAMP2-positive lysosomes. Cells as in (C) were treated with LLOMe for 30 min in full medium and immunostained for endogenous LAMP2 and mCherry Gal9. (E) Immunofluorescence confocal microscopy visualization of mCherry-Gal9 localization relative to LAMP2-positive lysosomes. Cells as in (D) immunostained for endogenous LAMP2 and mCherry Gal9. Scale bar, 10 μM. (F) HCM visualization of mCherry-Gal9 localization relative to endogenous Ub puncta. Cells as in (C) were treated with LLOMe for 30 min in full medium and immunostained for endogenous Ub and mCherry Gal9. (G) Immunofluorescence confocal microscopy visualization of mcherry-Gal9 localization relative to endogenous Ub and LAMP1-positive lysosomes. Cells as in (C) were treated with LLOMe for 30 min in full medium and immunostained for endogenous Ub, LAMP1 and mCherry Gal9. Scale bar, 10 μM. […]
# LAMP2 (endogenous) [2] = biological target: T1, LAMP2 (endogenous); test: co-IP, anti-FLAG IP, blot for endogenous LAMP2, HEK293T, 1 mM LLOMe 30 min (FIG. 2B)
# Experimental: (A) APEX2 proximity biotinylation analysis. […] Biotinylated proteins were then affinity-isolated on streptavidin beads and analyzed by immunoblotting in response to LLOMe. (B) Co-immunoprecipitation (Co-IP) analysis of interactions between LAMP2 and Gal9. HEK293T cells expressing FLAG-tagged Gal9 or glycan recognition mutant forms of Gal9 (individual R65A, R239A, or double/combined R65A/R239A were treated with 1 mM LLOMe for 30 min in full medium. IP, anti-FLAG antibody; immunoblotting with endogenous LAMP2. (C) Immunofluorescence confocal microscopy visualization of Gal9 puncta in Hula cells transfected with FLAG-Gal9^WT or double mutant FLAG-Gal9^{R65A/R239A} and treated with lysosomal damaging agent (1 mM LLOMe) in full medium for 30 min. Cells were immunostained for FLAG-Gal9. Scale bar, 10 μM . (D) Analysis of FLAG-Gal9 puncta formation in Huh7 WT cells transfected with FLAG-Gal9 and respective mutants. Cells as in (C) were treated as in (C), measured by FICM (blue: nuclei, Hoechst 33342; green: anti-FLAG antibody, Alexa-488). White masks, computer algorithm-defined cell boundaries; green masks, computer-identified Gal9 puncta. (E) Immunofluorescence confocal microscopy visualization of Ub puncta in Gal9WT^Huh7 and Gal9KO^Huh7 cells complemented with FLAG-Gal9^WT or FLAG-Gal9^{R65A/R239A}. […] (F) Endogenous Ub puncta quantified by HCM. […]
# USP9X (endogenous) = biological target: T2, USP9X (endogenous) (UniProt Q93008 1-2554, limits assumed); test: co-IP, anti-FLAG IP, blot for endogenous USP9X, HEK293T (FIG. 3C)
# T2 construct: also called deubiquitinating enzyme USP9X; DUB USP9X
# T2 sequence (Q93008 whole entry): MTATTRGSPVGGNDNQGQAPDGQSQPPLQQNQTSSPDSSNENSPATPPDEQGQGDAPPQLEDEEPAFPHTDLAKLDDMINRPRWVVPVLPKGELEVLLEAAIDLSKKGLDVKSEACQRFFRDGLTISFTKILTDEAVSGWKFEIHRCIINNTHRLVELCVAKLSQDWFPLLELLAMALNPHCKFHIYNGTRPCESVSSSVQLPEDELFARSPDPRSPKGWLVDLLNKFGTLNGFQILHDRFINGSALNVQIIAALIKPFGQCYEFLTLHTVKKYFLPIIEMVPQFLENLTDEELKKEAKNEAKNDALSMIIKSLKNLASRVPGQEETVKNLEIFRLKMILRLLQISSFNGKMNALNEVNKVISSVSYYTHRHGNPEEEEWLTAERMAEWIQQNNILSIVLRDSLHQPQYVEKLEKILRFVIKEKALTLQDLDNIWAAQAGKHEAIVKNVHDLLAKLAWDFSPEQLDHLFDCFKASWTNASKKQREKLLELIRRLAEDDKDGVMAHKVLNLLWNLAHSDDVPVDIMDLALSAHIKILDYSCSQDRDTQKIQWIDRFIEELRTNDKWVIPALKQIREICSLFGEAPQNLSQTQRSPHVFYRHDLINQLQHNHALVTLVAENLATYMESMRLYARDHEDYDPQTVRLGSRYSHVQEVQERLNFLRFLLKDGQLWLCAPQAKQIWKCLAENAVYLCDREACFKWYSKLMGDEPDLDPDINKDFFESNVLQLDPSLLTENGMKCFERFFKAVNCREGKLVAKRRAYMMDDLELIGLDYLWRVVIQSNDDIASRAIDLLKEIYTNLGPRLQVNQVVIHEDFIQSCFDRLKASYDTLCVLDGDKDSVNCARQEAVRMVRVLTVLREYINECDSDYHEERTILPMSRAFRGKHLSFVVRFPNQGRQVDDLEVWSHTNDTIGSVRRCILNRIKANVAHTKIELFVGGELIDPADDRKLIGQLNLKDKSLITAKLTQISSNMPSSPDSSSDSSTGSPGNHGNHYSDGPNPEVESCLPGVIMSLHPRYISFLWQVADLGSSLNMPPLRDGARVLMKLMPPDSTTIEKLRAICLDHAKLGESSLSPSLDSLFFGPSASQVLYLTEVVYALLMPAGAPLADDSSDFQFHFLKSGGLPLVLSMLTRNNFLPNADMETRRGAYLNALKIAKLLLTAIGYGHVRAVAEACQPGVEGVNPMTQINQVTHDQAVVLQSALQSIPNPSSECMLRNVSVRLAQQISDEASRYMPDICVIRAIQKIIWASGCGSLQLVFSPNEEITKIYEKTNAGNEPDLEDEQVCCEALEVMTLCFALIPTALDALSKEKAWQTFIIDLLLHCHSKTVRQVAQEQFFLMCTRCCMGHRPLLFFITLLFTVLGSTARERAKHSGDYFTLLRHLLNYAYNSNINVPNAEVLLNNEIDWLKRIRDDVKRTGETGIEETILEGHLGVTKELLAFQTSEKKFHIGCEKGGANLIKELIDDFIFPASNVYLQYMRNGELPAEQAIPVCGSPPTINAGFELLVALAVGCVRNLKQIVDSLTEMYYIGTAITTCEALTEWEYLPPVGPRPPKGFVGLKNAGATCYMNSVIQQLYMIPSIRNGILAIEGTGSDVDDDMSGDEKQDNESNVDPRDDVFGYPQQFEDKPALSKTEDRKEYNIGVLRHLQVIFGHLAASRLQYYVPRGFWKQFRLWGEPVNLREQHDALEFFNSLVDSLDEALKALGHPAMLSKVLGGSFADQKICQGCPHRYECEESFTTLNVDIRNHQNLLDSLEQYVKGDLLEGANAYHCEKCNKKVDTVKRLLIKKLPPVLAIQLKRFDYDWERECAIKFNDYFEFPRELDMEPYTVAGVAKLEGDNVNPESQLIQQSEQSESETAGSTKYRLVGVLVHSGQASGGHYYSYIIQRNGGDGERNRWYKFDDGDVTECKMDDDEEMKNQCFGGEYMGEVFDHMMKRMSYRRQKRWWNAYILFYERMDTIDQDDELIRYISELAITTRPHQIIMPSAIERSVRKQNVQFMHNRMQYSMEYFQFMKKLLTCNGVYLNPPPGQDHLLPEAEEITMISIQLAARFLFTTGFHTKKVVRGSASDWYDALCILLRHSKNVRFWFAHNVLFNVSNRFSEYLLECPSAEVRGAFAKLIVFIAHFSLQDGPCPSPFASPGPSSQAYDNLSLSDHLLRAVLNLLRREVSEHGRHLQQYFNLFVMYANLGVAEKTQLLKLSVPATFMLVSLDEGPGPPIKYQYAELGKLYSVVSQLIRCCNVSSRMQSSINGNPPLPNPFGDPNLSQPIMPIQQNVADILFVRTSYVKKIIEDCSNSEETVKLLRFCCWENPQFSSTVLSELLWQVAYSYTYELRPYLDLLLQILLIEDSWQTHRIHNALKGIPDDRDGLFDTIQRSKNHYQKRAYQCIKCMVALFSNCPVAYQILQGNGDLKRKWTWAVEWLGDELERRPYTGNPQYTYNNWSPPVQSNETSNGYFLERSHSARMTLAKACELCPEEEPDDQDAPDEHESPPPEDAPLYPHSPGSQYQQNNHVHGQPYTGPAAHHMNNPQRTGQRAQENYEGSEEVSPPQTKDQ
Binder,binding result (LAMP2 (endogenous) [1]),binding result (LAMP2 (endogenous) [2]),binding result (USP9X (endogenous))
B1,no binding,–,–
B2,–,no binding,binds
